± gives the uncertainty stated by the source.
Assay: self-splicing fitness, log relative to wild type (ln ratio); higher = more splicing; Tetrahymena group I intron in knt gene, E. coli kanamycin selection, DiMSum; sequences stand for … in CUCUCU…GGAGGGAAAAGUUAUCAGGCAUGCACCUGGUAGCUAGUCUUUAAACCAAUAGAUUGCAUCGGUUUAAAAGGCAAGACCGUCAAAUUGCGGGAAAGGGGUCAACAGCCGUUCAGUACCAAGUCUCAGGGGAAACUUUGAGAUGGCCUUGCAAAGGGUAUGGUAAUAAGCUGACGGACAUGGUCCUAACCACGCAGCCAAGUCCUAAGUCAACAGAUCUUCUGUUGAUAUGGAUGCAGUUCACAGACUAAAUGUCGGUCGGGGAAGAUGUAUUCUUCUCAUAAGAUAUAGUCGGACCUCUCCUUAAUGGGAGCUAGCGGAUGAAGUGAUGCAACACUGGAGCCGCUGGGAACUAAUUUGUAUGCGAAAGUAUAUUGAUUAGUUUUGGAGUACUCGUGGUCG
Method in brief: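 Six replicate transformations of E. coli BL21(DE3) with a pET-22b(+) library were grown overnight at 37°C or 30°C. The library randomised all eight P1ex-region intron nucleotides, the intron lying in the knt kanamycin-resistance gene, and plates were LB agar with or without 25 μg/mL kanamycin plus 100 μg/mL carbenicillin, 50 μM IPTG and 0.2% rhamnose. Pooled colonies were amplicon-sequenced on an Illumina HiSeq 2500, and fitness is the DiMSum error-weighted combination of wild-type-normalised replicate fold changes, kanamycin versus none.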

Sequence | self-splicing fitness (ln) (37 °C) | self-splicing fitness (ln) (30 °C)
GCGUAGCAAUAUUACGGCCA | 0.769 ± 0.3 | –
GCGUAGCAAUAUUACGGGAA | -1.44 ± 0.34 | -1.38 ± 0.27
GCGUAGCAAUAUUACGGGCA | -0.854 ± 0.17 | -0.858 ± 0.2
GCGUAGCAAUAUUACGGUAU | -0.828 ± 0.1 | -2.03 ± 0.077
GCGUAGCAAUAUUACGUACA | -1.23 ± 0.14 | -1.1 ± 0.16
GCGUAGCAAUAUUACGUAGU | -0.677 ± 0.14 | -2.27 ± 0.21
GCGUAGCAAUAUUACGUCAU | -2.25 ± 0.3 | -3.22 ± 0.26
GCGUAGCAAUAUUACGUCGG | -3.18 ± 0.24 | -2.69 ± 0.21
GCGUAGCAAUAUUACGUGAC | -1.15 ± 0.28 | -2.29 ± 0.29
GCGUAGCAAUAUUACGUGCA | -1.02 ± 0.13 | -1.53 ± 0.12
GCGUAGCAAUAUUACGUGCU | -2.44 ± 0.27 | -2.05 ± 0.16
GCGUAGCAAUAUUACGUGGA | -2.23 ± 0.38 | -3.68 ± 0.48
GCGUAGCAAUAUUACGUGUA | -2.43 ± 0.12 | -3.63 ± 0.21
GCGUAGCAAUAUUACGUUCC | -2.36 ± 0.49 | –
GCGUAGCAAUAUUACGUUGA | -1.94 ± 0.21 | -3.16 ± 0.33
GCGUAGCAAUAUUACGUUUG | -1.37 ± 0.15 | -3.14 ± 0.21
GCUAAGCAAUAUUACGACAG | -2.51 ± 0.32 | -2.67 ± 0.17
GCUAAGCAAUAUUACGAUGC | -2.18 ± 0.18 | -3.28 ± 0.19
GCUAAGCAAUAUUACGAUUC | -0.128 ± 0.092 | -0.0116 ± 0.081
GCUAAGCAAUAUUACGCACG | -0.0584 ± 0.14 | -1.84 ± 0.14
GCUAAGCAAUAUUACGCAUU | -0.163 ± 0.084 | -0.91 ± 0.065
GCUAAGCAAUAUUACGCCAA | -1.74 ± 0.41 | -2.35 ± 0.33
GCUAAGCAAUAUUACGCCAC | -2 ± 0.38 | -1.43 ± 0.35
GCUAAGCAAUAUUACGCCCU | -0.768 ± 0.15 | -0.606 ± 0.19

Sequence | self-splicing fitness (ln) (37 °C) | self-splicing fitness (ln) (30 °C)
GCUAAGCAAUAUUACGCCUU | -0.0502 ± 0.14 | -1.43 ± 0.11
GCUAAGCAAUAUUACGCGCU | -1.57 ± 0.23 | -2.47 ± 0.16
GCUAAGCAAUAUUACGCGGC | -2.64 ± 0.5 | -0.424 ± 0.19
GCUAAGCAAUAUUACGCUGA | -1.02 ± 0.2 | -1.48 ± 0.18
GCUAAGCAAUAUUACGCUUG | -1.71 ± 0.18 | -3.24 ± 0.17
GCUAAGCAAUAUUACGGUCG | -1.34 ± 0.14 | -2.27 ± 0.11
GCUAAGCAAUAUUACGGUGU | -1.6 ± 0.1 | -2.48 ± 0.087
GCUAAGCAAUAUUACGUCCA | -0.684 ± 0.23 | -1.94 ± 0.32
GCUAAGCAAUAUUACGUCCG | -0.712 ± 0.15 | -1.53 ± 0.13
GCUAAGCAAUAUUACGUCGC | -2.55 ± 0.29 | -2.46 ± 0.19
GCUAAGCAAUAUUACGUCUG | -0.987 ± 0.096 | -1.84 ± 0.085
GCUAAGCAAUAUUACGUUAA | -1.74 ± 0.18 | -2.72 ± 0.16
GCUAAGCAAUAUUACGUUCC | -0.467 ± 0.14 | -1.14 ± 0.087
GCUCAGCAAUAUUACGACUG | 0.178 ± 0.19 | -2.66 ± 0.35
GCUCAGCAAUAUUACGAGCC | -3.64 ± 0.39 | -3.98 ± 0.31
GCUCAGCAAUAUUACGAGGA | -0.741 ± 0.12 | -0.479 ± 0.12
GCUCAGCAAUAUUACGAUUG | -1.11 ± 0.12 | -2.83 ± 0.12
GCUCAGCAAUAUUACGCAAU | 0.487 ± 0.11 | -1.02 ± 0.078
GCUCAGCAAUAUUACGCGGC | -1.46 ± 0.26 | -3.83 ± 0.47
GCUCAGCAAUAUUACGGCAG | -2.82 ± 0.38 | -2.91 ± 0.22
GCUCAGCAAUAUUACGGCUA | -0.758 ± 0.12 | -0.707 ± 0.13
GCUCAGCAAUAUUACGGGCG | -1.22 ± 0.085 | -1.61 ± 0.071
GCUCAGCAAUAUUACGGGGA | 0.325 ± 0.075 | -0.491 ± 0.054
GCUCAGCAAUAUUACGGUGA | -1.69 ± 0.16 | -3.42 ± 0.25

Sequence | self-splicing fitness (ln) (37 °C) | self-splicing fitness (ln) (30 °C)
GCUCAGCAAUAUUACGUAGC | -1.43 ± 0.16 | -1.23 ± 0.12
GCUCAGCAAUAUUACGUCCC | 0.272 ± 0.24 | -0.208 ± 0.24
GCUCAGCAAUAUUACGUCGG | -0.555 ± 0.15 | -2.71 ± 0.14
GCUCAGCAAUAUUACGUCUA | -0.494 ± 0.097 | -0.844 ± 0.1
GCUCAGCAAUAUUACGUGGA | -1.63 ± 0.12 | -1.91 ± 0.1
GCUCAGCAAUAUUACGUUAA | -1.28 ± 0.16 | -1.32 ± 0.17
GCUGAGCAAUAUUACGAACG | -1.12 ± 0.23 | -1.53 ± 0.18
GCUGAGCAAUAUUACGAACU | -0.576 ± 0.21 | -2.49 ± 0.33
GCUGAGCAAUAUUACGAGUU | -0.949 ± 0.12 | -2.73 ± 0.13
GCUGAGCAAUAUUACGCAGG | -1.56 ± 0.15 | -1.66 ± 0.13
GCUGAGCAAUAUUACGCAGU | -3.31 ± 0.34 | -4.98 ± 0.45
GCUGAGCAAUAUUACGCCAG | -2.73 ± 0.41 | -3.69 ± 0.25
GCUGAGCAAUAUUACGCCGA | -1.38 ± 0.32 | –
GCUGAGCAAUAUUACGCGAU | -2.59 ± 0.25 | -2.78 ± 0.17
GCUGAGCAAUAUUACGCGGC | -1.22 ± 0.41 | –
GCUGAGCAAUAUUACGCUAG | -1.27 ± 0.14 | -3.28 ± 0.16
GCUGAGCAAUAUUACGGAAA | -2.63 ± 0.32 | -2.86 ± 0.25
GCUGAGCAAUAUUACGGCCG | -2.37 ± 0.39 | -3.94 ± 0.32
GCUGAGCAAUAUUACGGGAU | -1.34 ± 0.13 | -2.39 ± 0.14
GCUGAGCAAUAUUACGGGCC | -2.27 ± 0.39 | -2.39 ± 0.32
GCUGAGCAAUAUUACGGGGC | -3.85 ± 0.42 | -3.02 ± 0.24
GCUGAGCAAUAUUACGUAGU | -1.71 ± 0.15 | -2.86 ± 0.16
GCUGAGCAAUAUUACGUAUC | 0.164 ± 0.1 | -2.37 ± 0.13
GCUGAGCAAUAUUACGUUCU | -0.758 ± 0.15 | -0.944 ± 0.12

Sequence | self-splicing fitness (ln) (37 °C) | self-splicing fitness (ln) (30 °C)
GCUGAGCAAUAUUACGUUUU | -3.21 ± 0.22 | -4.08 ± 0.26
GCUUAGCAAUAUUACGAAAC | -0.448 ± 0.24 | -1.22 ± 0.16
GCUUAGCAAUAUUACGCACA | 0.3 ± 0.15 | -1.02 ± 0.14
GCUUAGCAAUAUUACGCACU | 0.197 ± 0.12 | -0.857 ± 0.11
GCUUAGCAAUAUUACGCAUA | -0.612 ± 0.11 | -1.58 ± 0.14
GCUUAGCAAUAUUACGCCGU | -0.553 ± 0.18 | -2.31 ± 0.21
GCUUAGCAAUAUUACGCCUU | 0.179 ± 0.19 | -2.7 ± 0.21
GCUUAGCAAUAUUACGCGCG | -0.149 ± 0.13 | -0.0422 ± 0.094
GCUUAGCAAUAUUACGCGUU | 0.0522 ± 0.1 | -0.427 ± 0.096
GCUUAGCAAUAUUACGGACA | -1.15 ± 0.13 | -0.409 ± 0.13
GCUUAGCAAUAUUACGGAGU | -0.418 ± 0.19 | -2.9 ± 0.26
GCUUAGCAAUAUUACGGGCU | -3.26 ± 0.23 | -2.79 ± 0.21
GCUUAGCAAUAUUACGGGUU | -1.43 ± 0.14 | -1.95 ± 0.094
GCUUAGCAAUAUUACGGUUA | -0.548 ± 0.11 | -0.517 ± 0.11
GCUUAGCAAUAUUACGUCAA | -1.66 ± 0.2 | -2.67 ± 0.26
GCUUAGCAAUAUUACGUGAA | 0.311 ± 0.074 | -0.117 ± 0.064
GCUUAGCAAUAUUACGUGCU | -1.41 ± 0.18 | -2.78 ± 0.19
GCUUAGCAAUAUUACGUGUG | -1.14 ± 0.066 | -1.91 ± 0.054
GCUUAGCAAUAUUACGUUUA | -1.17 ± 0.12 | -1.73 ± 0.13
GGAAAGCAAUAUUACGACUA | -0.129 ± 0.12 | -0.62 ± 0.12
GGAAAGCAAUAUUACGACUC | -0.214 ± 0.19 | 0.0221 ± 0.11
GGAAAGCAAUAUUACGAUCU | -1.68 ± 0.32 | -3.9 ± 0.42
GGAAAGCAAUAUUACGAUGA | -0.498 ± 0.2 | -1.68 ± 0.2
GGAAAGCAAUAUUACGAUUC | -0.276 ± 0.16 | -1.84 ± 0.16
